Measurements reported in patent US20030092609A1.
[ ]: non-standard residue; d: D form. Hyp = O=C(O)[C@@H]1C[C@@H](O)CN1

B1: H-Gly-Pro-Hyp-Gly-Ala-Gly-OH (AAP, antiarrhythmic peptide) (peptide)
chain: H-GP[Hyp]GAG-OH
SMILES: C[C@H](NC(=O)CNC(=O)[C@@H]1C[C@@H](O)CN1C(=O)[C@@H]1CCCN1C(=O)CN)C(=O)NCC(=O)O

Experiments:
[1] = target: AAP receptors in CHO cells; test: in situ displacement of [125I]AAP10 on intact CHO cells
[2] = target: AAP receptors in CHO cells; test: cell-based or functional assay
[3] = target: [125I]AAP10 binding site in murine heart tissue preparations; test: displacement of 0.8 nM [125I]AAP10 from murine heart filtrate
[4] = target: [125I]AAP10 binding site in murine heart tissue preparations; test: displacement of 0.8 nM [125I]AAP10 from murine heart membranes

Row | IC50 [1] [nM] | Inhibition of forskoline stimulated cAMP formation in CHO cells, EC50 [2] [nM] | IC50 [3] [nM] | IC50 [4] [nM] | Molecule
1 | 65 | – | – | – | Ac-D-Tyr(3,5-di-I)-D-Pro-D-Hyp-Gly-D-Ala-Gly-NH2 (Compound 24) (peptide)
2 | 0.5 | 6.2 | 3.6 | 1.2 | Ac-D-Tyr-D-Pro-D-4Hyp-Gly-D-Ala-Gly-NH2 (Compound 2) (peptide)
3 | 130 | 11 | 1.2 | – | H-GAG[Hyp]PY-NH2 [H-Gly-Ala-Gly-Hyp-Pro-Tyr-NH2 (AAP10)]
4 | 0.5 | – | – | – | {ASAL(3-I)}-P[Hyp]GAG-NH2 [ASAL(mono-iodo)-Pro-Hyp-Gly-Ala-Gly-NH2 (Compound 32)]
5 | 0.8 | 53 | 1.2 | – | B1
